The record followed here is article PMC3002279, “Polyphosphate Kinase from M. tuberculosis: An Interconnect between the Genetic and Biochemical Role” (PLoS ONE, 2010).

This data set deals with the molecule itself. As to the kind of experiment: SEC; […] (50 mM Tris pH 7.5, 150 mM NaCl, 4 mM MgCl2, 10% glycerol) […].

B1: Polyphosphate Kinase (PPK) from M. tuberculosis, recombinant, untagged (enzyme)
chain: MMSNDRKVTEIENSPVTEVRPEEHAWYPDDSALAAPPAATPAAISDQLPSDRYLNRELSWLDFNARVLALAADKSMPLLERAKFLAIFASNLDEFYMVRVAGLKRRDEMGLSVRSADGLTPREQLGRIGEQTQQLASRHARVFLDSVLPALGEEGIYIVTWADLDQAERDRLSTYFNEQVFPVLTPLAVDPAHPFPFVSGLSLNLAVTVRQPEDGTQHFARVKVPDNVDRFVELAAREASEEAAGTEGRTALRFLPMEELIAAFLPVLFPGMEIVEHHAFRITRNADFEVEEDRDEDLLQALERELARRRFGSPVRLEIADDMTESMLELLLRELDVHPGDVIEVPGLLDLSSLWQIYAVDRPTLKDRTFVPATHPAFAERETPKSIFATLREGDVLVHHPYDSFSTSVQRFIEQAAADPNVLAIKQTLYRTSGDSPIVRALIDAAEAGKQVVALVEIKARFDEQANIAWARALEQAGVHVAYGLVGLKTHCKTALVVRREGPTIRRYCHVGTGNYNSKTARLYEDVGLLTAAPDIGADLTDLFNSLTGYSRKLSYRNLLVAPHGIRAGIIDRVEREVAAHRAEGAHNGKGRIRLKMNALVDEQVIDALYRASRAGVRIEVVVRGICALRPGAQGISENIIVRSILGRFLEHSRILHFRAIDEFWIGSADMMHRNLDRRVEVMAQVKNPRLTAQLDELFESALDPCTRCWELGPDGQWTASPQEGHSVRDHQESLMERHRSP
notes: also called M. tu PPK; M.tu PPK
Consider B1, for which the “stoichiometry N” value amounted to 4.
